Laboratory results as given in PMC2741464.

B1: 30-bp duplex 30A/30C (EMSA) (dsDNA)
DNA 1: CCCCTATCCTTTCCGCGTCCTTACTTCCCC
DNA 2: GGGGAAGTAAGGACGCGGAAAGGATAGGGG
B2: 30-bp duplex 30A/30C, fluorescein (polarization) (dsDNA)
DNA 1: B1 DNA 1
DNA 2: B1 DNA 2

Assays:
Ku70/80ΔC [1] = target: T1, Ku70/80ΔC (human, UniProt P12956;P13010 1-609;1-548); assay: EMSA; reduced (control), 10 mM Mg2+, probably nM; 50 mM Tris-HCl pH 7.8, 10 mM MgCl2, 50 mM NaCl (FP: plus 1 mM DTT, 0.5 ml; EMSA: 20 μl, 500 fmol DNA); oxidation 2 mM diamide 15 min on ice, re-reduction 5 mM DTT 15 min on ice; binding temperature not stated; conditions: protein: recombinant; tags: His6 on Ku70; N-terminal His6 (pRSET B) also on Ku80ΔC per Methods; copies: 1;1; label: 32P; blunt
[2] = target: T2, Ku70/Ku80 heterodimer, wild type (human, UniProt P12956;P13010 1-609;1-732); assay: EMSA; reduced (control), 10 mM Mg2+, titration was 0-150 nM so probably nM; 50 mM Tris-HCl pH 7.8, 10 mM MgCl2, 50 mM NaCl (FP: plus 1 mM DTT, 0.5 ml; EMSA: 20 μl, 500 fmol DNA); oxidation 2 mM diamide 15 min on ice, re-reduction 5 mM DTT 15 min on ice; binding temperature not stated; conditions: protein: recombinant; tags: His6 on Ku70; copies: 1;1; label: 32P; blunt
Ku70/Ku80 C493S = Ku70/Ku80 C493S (human, UniProt P12956;P13010 1-609;1-732, C493S); assay: EMSA; reduced; similar to wild type (data not shown); 50 mM Tris-HCl pH 7.8, 10 mM MgCl2, 50 mM NaCl (FP: plus 1 mM DTT, 0.5 ml; EMSA: 20 μl, 500 fmol DNA); oxidation 2 mM diamide 15 min on ice, re-reduction 5 mM DTT 15 min on ice; binding temperature not stated; conditions: protein: recombinant; tags: His6 on Ku70; copies: 1;1; label: 32P; blunt
Ku70/Ku80 C493A = Ku70/Ku80 C493A (human, UniProt P12956;P13010 1-609;1-732, C493A); assay: EMSA; reduced; near wild type; 50 mM Tris-HCl pH 7.8, 10 mM MgCl2, 50 mM NaCl (FP: plus 1 mM DTT, 0.5 ml; EMSA: 20 μl, 500 fmol DNA); oxidation 2 mM diamide 15 min on ice, re-reduction 5 mM DTT 15 min on ice; binding temperature not stated; conditions: protein: recombinant; tags: His6 on Ku70; copies: 1;1; label: 32P; blunt
[3] = target: T2, Ku70/Ku80 heterodimer, wild type; assay: fluorescence polarization; reduced (control), 1 mM DTT, 10 mM Mg2+, probably nM; 50 mM Tris-HCl pH 7.8, 10 mM MgCl2, 50 mM NaCl (FP: plus 1 mM DTT, 0.5 ml; EMSA: 20 μl, 500 fmol DNA); oxidation 2 mM diamide 15 min on ice, re-reduction 5 mM DTT 15 min on ice; binding temperature not stated; conditions: protein: recombinant; tags: His6 on Ku70; copies: 1;1; blunt
Ku70/80ΔC [4] = target: T1, Ku70/80ΔC; assay: as above; conditions: protein: recombinant; tags: His6 on Ku70; N-terminal His6 (pRSET B) also on Ku80ΔC per Methods; copies: 1;1; blunt
[5] = target: T2, Ku70/Ku80 heterodimer, wild type; assay: fluorescence polarization; re-reduced: 2 mM diamide then 5 mM DTT, probably nM; 50 mM Tris-HCl pH 7.8, 10 mM MgCl2, 50 mM NaCl (FP: plus 1 mM DTT, 0.5 ml; EMSA: 20 μl, 500 fmol DNA); oxidation 2 mM diamide 15 min on ice, re-reduction 5 mM DTT 15 min on ice; binding temperature not stated; conditions: protein: recombinant; tags: His6 on Ku70; copies: 1;1; blunt

T2 sequence (P12956 whole entry, chain 1 of 2): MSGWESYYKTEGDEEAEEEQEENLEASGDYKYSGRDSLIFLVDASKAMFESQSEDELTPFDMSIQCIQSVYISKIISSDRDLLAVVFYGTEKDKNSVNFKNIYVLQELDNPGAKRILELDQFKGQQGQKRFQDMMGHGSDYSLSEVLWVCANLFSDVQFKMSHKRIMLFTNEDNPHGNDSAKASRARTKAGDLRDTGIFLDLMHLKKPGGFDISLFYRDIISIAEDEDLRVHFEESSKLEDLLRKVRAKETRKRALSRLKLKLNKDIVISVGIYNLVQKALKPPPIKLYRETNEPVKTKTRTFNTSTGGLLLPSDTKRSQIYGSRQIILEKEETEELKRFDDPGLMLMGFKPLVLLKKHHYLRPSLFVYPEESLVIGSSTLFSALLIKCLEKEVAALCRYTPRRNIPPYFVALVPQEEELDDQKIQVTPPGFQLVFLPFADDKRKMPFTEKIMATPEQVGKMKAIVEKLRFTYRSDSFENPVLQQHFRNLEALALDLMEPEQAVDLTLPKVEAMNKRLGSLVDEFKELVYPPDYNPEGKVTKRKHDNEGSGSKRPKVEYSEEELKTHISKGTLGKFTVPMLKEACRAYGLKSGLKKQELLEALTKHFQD
T2 sequence (P13010 whole entry, chain 2 of 2): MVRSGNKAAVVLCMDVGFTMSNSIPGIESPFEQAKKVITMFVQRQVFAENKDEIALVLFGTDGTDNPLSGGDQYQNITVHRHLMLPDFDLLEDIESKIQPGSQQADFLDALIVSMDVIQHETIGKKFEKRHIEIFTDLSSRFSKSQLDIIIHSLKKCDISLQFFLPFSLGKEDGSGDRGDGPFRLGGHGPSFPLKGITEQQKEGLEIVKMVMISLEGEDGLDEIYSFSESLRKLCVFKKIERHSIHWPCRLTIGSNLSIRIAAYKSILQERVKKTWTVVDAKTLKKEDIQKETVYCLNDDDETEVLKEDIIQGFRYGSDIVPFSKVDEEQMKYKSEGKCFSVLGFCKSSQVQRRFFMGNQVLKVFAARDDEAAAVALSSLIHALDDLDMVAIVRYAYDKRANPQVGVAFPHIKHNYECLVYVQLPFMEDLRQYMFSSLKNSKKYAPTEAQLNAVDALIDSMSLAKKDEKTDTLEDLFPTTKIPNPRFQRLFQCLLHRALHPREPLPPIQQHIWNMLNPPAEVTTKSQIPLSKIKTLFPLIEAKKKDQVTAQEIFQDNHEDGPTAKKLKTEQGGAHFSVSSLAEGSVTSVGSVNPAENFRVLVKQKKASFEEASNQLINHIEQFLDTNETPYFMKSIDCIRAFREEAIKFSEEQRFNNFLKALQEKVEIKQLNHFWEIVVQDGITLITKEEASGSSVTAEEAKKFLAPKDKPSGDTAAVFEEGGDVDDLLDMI
T1 sequence (P12956 whole entry, stated change not applied, chain 1 of 2): as the sequence (P12956 whole entry, chain 1 of 2) above
T1 sequence (P13010 1-548, stated change not applied, chain 2 of 2): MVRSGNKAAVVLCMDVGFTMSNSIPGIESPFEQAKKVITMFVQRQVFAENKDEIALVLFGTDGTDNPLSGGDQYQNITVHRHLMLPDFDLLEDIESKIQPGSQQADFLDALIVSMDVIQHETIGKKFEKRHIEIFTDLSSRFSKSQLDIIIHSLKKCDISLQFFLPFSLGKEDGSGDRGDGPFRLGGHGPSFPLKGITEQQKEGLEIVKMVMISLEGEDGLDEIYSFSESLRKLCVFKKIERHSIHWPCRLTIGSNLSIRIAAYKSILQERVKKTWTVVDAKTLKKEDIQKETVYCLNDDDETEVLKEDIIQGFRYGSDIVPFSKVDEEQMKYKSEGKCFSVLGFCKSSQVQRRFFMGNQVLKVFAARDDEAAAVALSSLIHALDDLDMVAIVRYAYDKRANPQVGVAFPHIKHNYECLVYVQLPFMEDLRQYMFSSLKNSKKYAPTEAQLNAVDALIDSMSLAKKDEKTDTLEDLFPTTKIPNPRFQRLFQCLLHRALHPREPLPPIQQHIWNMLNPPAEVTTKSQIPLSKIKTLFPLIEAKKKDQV
Sequence of Ku70/Ku80 C493A (P12956 whole entry, chain 1 of 2): as the sequence (P12956 whole entry, chain 1 of 2) above
Sequence of Ku70/Ku80 C493A (P13010 whole entry C493A, chain 2 of 2): as the sequence (P13010 whole entry, chain 2 of 2) above, with C493A counted along it
Sequence of Ku70/Ku80 C493S (P12956 whole entry, chain 1 of 2): as the sequence (P12956 whole entry, chain 1 of 2) above
Sequence of Ku70/Ku80 C493S (P13010 whole entry C493S, chain 2 of 2): as the sequence (P13010 whole entry, chain 2 of 2) above, with C493S counted along it

Binder	Kd (Ku70/80ΔC [1]) [nM]	Kd [2] [nM]	binding result (Ku70/Ku80 C493S)	binding result (Ku70/Ku80 C493A)	Kd [3] [nM]	Kd (Ku70/80ΔC [4]) [nM]	Kd [5] [nM]
B1	51 ± 7.7	29.7 ± 2.5	binds	binds	–	–	–
B2	–	–	–	–	25.8 ± 2.3	25.7 ± 1.5	31.4 ± 3
